target: narb_syne7 narB (UniProt P39458)
Sequence (P39458 whole entry): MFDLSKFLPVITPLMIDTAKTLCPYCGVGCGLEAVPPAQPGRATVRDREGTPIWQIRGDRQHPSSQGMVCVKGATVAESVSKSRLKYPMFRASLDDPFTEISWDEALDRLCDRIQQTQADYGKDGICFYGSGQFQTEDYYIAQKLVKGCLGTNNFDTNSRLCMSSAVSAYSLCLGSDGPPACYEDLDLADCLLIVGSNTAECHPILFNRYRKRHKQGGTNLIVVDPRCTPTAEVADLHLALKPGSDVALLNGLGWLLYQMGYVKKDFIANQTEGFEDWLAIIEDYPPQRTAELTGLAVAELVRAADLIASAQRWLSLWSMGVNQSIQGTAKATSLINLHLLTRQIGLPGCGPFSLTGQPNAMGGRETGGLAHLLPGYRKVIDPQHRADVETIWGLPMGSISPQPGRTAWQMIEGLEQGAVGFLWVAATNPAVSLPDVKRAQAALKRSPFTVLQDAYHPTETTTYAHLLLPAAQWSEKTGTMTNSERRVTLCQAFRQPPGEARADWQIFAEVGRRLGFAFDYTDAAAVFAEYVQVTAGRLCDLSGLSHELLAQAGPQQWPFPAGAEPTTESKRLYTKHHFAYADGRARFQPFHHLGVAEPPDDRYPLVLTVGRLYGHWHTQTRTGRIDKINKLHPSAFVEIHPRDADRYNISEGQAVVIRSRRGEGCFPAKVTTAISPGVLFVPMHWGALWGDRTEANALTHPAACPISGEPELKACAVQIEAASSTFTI

Sequence of Ferredoxin-1 (Anabaena sp. (strain PCC 7119)), P0A3C8 E96K (P0A3C8 whole entry E96K): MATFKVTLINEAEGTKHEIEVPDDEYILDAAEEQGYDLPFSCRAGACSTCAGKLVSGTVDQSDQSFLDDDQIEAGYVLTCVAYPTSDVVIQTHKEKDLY
Sequence of Ferredoxin-1 (Anabaena sp. (strain PCC 7119)), P0A3C8 E95K (P0A3C8 whole entry E95K): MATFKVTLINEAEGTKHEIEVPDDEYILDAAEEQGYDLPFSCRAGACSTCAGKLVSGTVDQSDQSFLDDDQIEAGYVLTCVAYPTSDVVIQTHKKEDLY
Sequence of Ferredoxin-1 (Anabaena sp. (strain PCC 7119)), P0A3C8 E95K;E96K (P0A3C8 whole entry E95K/E96K): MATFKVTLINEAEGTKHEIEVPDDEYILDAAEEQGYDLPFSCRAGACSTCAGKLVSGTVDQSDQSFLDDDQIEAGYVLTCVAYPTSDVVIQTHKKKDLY

Effect of a mutation on the interaction, decreasing interaction:
Ferredoxin-1 (Anabaena sp. (strain PCC 7119)), P0A3C8 E95K
Ferredoxin-1 (Anabaena sp. (strain PCC 7119)), P0A3C8 E95K;E96K
Ferredoxin-1 (Anabaena sp. (strain PCC 7119)), P0A3C8 E96K

Reference: IntAct's records for PubMed 14871493
